Results from patent US8728472B2, “Antibodies that bind selectively to P25 and uses therefor” (The Board of Regents of the University of Texas System, priority 2009, dated 2014).
“Also recorded” adds a separate entry of the source.

Legend:
Cdk5/p25 = molecular target: T1, Cdk5/p25 (Homo sapiens, UniProt Q15078); assay: Inhibition of Cdk5/p25 kinase activity by monoclonal antibody; format: biochemical; details: FIG. 4
T1 construct: cleaves p35, thereby removing the first 100 amino acids to produce p25
T1 sequence (Q15078 99-307 limits assumed): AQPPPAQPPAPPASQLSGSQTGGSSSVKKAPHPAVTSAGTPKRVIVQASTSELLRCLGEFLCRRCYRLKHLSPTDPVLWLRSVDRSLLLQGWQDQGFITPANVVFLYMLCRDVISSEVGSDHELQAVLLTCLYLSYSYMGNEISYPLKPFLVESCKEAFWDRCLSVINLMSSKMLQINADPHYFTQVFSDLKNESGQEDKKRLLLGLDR

p35 = molecular target: T2, p35 (Mus musculus, UniProt P61809); assay: Immunoblotting and immunostaining for p35; format: binding; details: immunoblot
T2 construct: from tissue; host or cells: striatal homogenates of p25-GFP over-expressing mice
T2 sequence (P61809 whole entry): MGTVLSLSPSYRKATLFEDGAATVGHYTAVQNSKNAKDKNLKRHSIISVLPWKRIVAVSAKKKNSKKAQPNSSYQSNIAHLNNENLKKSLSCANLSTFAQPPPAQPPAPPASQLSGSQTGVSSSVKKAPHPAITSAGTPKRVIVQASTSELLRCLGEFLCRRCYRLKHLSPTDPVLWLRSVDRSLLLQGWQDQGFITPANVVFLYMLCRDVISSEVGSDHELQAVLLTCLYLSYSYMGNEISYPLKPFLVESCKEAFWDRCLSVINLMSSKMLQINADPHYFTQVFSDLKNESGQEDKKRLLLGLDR
From the text: (§1) Cdk5/p25 proteins (FIG. 2A) were co-expressed in Sf9 insect cells from a Baculovirus vector (pBAC4X-1) encoding the genes for the human proteins. […] The proteins were absorbed to a Ni-NTA column, eluted and further purified by FPLC S-sepharose HP column chromatography. Mice received intrasplenic injections of pure Cdk5/p25 conjugated to biodegradable microparticles to optimize antigen presentation. ELISA assays were used to initially screen mice sera for antibody production using pure Cdk5/p25 followed by Western blotting of the pure Cdk5/p25 and striatal cell lysates from a p25 (p25-GFP) over-expressing mouse line (FIG. 2B). When both assays yielded positive results, a hemisplenectomy was performed and B cells were fused with SP2/0-IL6 myeloma cells to make hybridomas. Hybridoma culture supernatants were screened by ELISA, immunoblotting of pure protein (FIG. 2A), and immunohistochemical staining of HEK293T cultured cells transfected with Cdk5, p35, Cdk5/p35, p25, Cdk5/p25, or negative control (blank) eukaryotic expression plasmids (FIG. 2C). Hybridoma lines producing antibodies selective for p25 were re-derived and screens were repeated.
(§2) Abs to p35, DARPP-32 (Nishi et al., 1997), GFAP, and p25 were used to stain rat coronal cryosections (20 μm) from control and stroked hemispheres. […] See Methods for further details.

PKA = assay: Effect of monoclonal antibody on PKA activity; format: biochemical; details: FIG. 4
p25 [1] = molecular target: T3, p25 (Rattus norvegicus, UniProt P61810); assay: Immunoblotting and immunostaining for p25 (p25-GFP lysates, transfected HEK293T cells, ischemic tissue); format: binding; details: compared with commercial p35/p25 Ab
T3 construct: cleaves p35, thereby removing the first 100 amino acids to produce p25; expressed in transfected cells; host or cells: HEK293T; also purified Sf9 protein, p25-GFP transgenic mouse striatum, rat ischemic brain and neurons
T3 sequence (P61810 99-307): as the sequence (Q15078 99-307 limits assumed) above, with G23V, V35I counted along it
From the text: as §1, §2

p25 [2] = assay: as above; format: binding
From the text: as §1, §2

[3] = listed as anti-p25 monoclonal antibody

B1: 1C4: monoclonal antibody binding p25 but not p35, produced by hybridoma cell line 1C4 (ATCC PTA-8555) (antibody, V domains shown)
VH: QIQLEESGPELRKPGETVRISCKASGYTFTTAGMQWVQKMPGTGLKWIGWINTHSGVPKYAGEFTGRFDFSLETSASTAYLQIVNLKNEDTATYFCARYGKFGEMDYWGQGTSVTVSS
VL: IVMTQSPASLAVSLGQRATISCRSSETVDSDGNSFMHWYQQKPGQSPKLLLYLASTLESGVPARFSGSGSRTDFTLTIDPVEADDAATYYCHQNNEDPTFGGGTKLEIKR
B1 was tested, and the “inhibition of Cdk5/p25 activity” value (Cdk5/p25) was “almost completely inhibits Cdk5 activity”, the “inhibition of Cdk5/p25 activity” value (Cdk5/p25; [3]) was “inhibits Cdk5/p25 activity” and the “reactivity with p35” value (p35) was “does not react with p35 at all”. For the same molecule, the “effect on PKA activity” value (PKA) was “no effect on PKA”, the “effect on PKA activity” value (PKA; [3]) was “little or no effect on PKA activity” and the “sensitivity of detection of p25 generated by MCAO” value (p25 [1]) was “greater sensitivity than a commercial p35/p25 Ab”. For the same molecule, the “detection of p25” value (p25 [2]; immunoblot of lysates from GFP-p25 over-expressing mice, focal ischemia in brain slices and cultured neurons, listed as anti-p25 monoclonal antibody) was “detects transgenic p25-GFP; also recorded: strongly detects p25 generated in response to focal ischemia” and the “staining of cells transfected with expression vectors” value (p25 [2]; transfected cells, p25 vs p35 expression vector) was “only stains cells transfected with an expression vector for p25 but not p35”.
